Test results from patent publication US8586034B2, “Cytomegalovirus disintegrin-like peptides” (priority 2004, dated 2013).

T1: β3 integrin (Homo sapiens, UniProt P05106)
T1 construct: endogenous in cells; host or cells: Normal Human Dermal Fibroblasts (NHDF), detergent lysate
T1 sequence (P05106 27-788): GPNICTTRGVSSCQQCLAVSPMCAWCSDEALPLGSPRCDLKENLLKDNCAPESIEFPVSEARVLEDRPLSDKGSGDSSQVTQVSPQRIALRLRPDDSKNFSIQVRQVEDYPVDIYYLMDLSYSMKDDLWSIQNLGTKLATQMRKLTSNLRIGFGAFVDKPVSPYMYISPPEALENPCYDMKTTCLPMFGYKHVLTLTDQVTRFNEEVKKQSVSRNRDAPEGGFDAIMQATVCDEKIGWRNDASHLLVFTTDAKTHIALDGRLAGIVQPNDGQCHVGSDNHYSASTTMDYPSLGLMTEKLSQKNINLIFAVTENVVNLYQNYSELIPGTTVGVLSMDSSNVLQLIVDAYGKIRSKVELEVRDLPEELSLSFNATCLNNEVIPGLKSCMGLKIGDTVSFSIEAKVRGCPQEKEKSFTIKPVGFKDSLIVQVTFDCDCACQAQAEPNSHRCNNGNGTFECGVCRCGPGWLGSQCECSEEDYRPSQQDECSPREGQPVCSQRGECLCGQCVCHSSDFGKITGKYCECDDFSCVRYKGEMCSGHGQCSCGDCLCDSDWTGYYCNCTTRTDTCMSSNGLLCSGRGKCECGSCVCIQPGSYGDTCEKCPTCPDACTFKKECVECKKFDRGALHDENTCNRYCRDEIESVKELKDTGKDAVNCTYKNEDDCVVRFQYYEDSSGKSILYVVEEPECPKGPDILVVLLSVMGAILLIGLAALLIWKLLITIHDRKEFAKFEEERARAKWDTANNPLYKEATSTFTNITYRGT

B1: gBDLD: amino acids 57-146 of HCMV AD 169 glycoprotein B disintegrin-like domain, His-tagged, expressed in E. coli (protein)
chain: VTSSEAVSHRANETIYNTTLKYGDVVGVNTTKYPYRVCSMAQGTDLIRFERNIICTSMKPINEDLDEGIMVVYKRNIVAHTFKVRVYQKV
modifications: left off: small tags and cut ends
notes: amino acids 57-146 of HCMV AD 169 glycoprotein B disintegrin-like domain, His-tagged, expressed in E. coli
B2: EGF: known cytoskeletal reorganizer (protein, UniProt P01133 23-1207, looked up)
Pro-epidermal growth factor: PQHWSCPEGTLAGNGNSTCVGPAPFLIFSHGNSIFRIDTEGTNYEQLVVDAGVSVIMDFHYNEKRIYWVDLERQLLQRVFLNGSRQERVCNIEKNVSGMAINWINEEVIWSNQQEGIITVTDMKGNNSHILLSALKYPANVAVDPVERFIFWSSEVAGSLYRADLDGVGVKALLETSEKITAVSLDVLDKRLFWIQYNREGSNSLICSCDYDGGSVHISKHPTQHNLFAMSLFGDRIFYSTWKMKTIWIANKHTGKDMVRINLHSSFVPLGELKVVHPLAQPKAEDDTWEPEQKLCKLRKGNCSSTVCGQDLQSHLCMCAEGYALSRDRKYCEDVNECAFWNHGCTLGCKNTPGSYYCTCPVGFVLLPDGKRCHQLVSCPRNVSECSHDCVLTSEGPLCFCPEGSVLERDGKTCSGCSSPDNGGCSQLCVPLSPVSWECDCFPGYDLQLDEKSCAASGPQPFLLFANSQDIRHMHFDGTDYGTLLSQQMGMVYALDHDPVENKIYFAHTALKWIERANMDGSQRERLIEEGVDVPEGLAVDWIGRRFYWTDRGKSLIGRSDLNGKRSKIITKENISQPRGIAVHPMAKRLFWTDTGINPRIESSSLQGLGRLVIASSDLIWPSGITIDFLTDKLYWCDAKQSVIEMANLDGSKRRRLTQNDVGHPFAVAVFEDYVWFSDWAMPSVMRVNKRTGKDRVRLQGSMLKPSSLVVVHPLAKPGADPCLYQNGGCEHICKKRLGTAWCSCREGFMKASDGKTCLALDGHQLLAGGEVDLKNQVTPLDILSKTRVSEDNITESQHMLVAEIMVSDQDDCAPVGCSMYARCISEGEDATCQCLKGFAGDGKLCSDIDECEMGVPVCPPASSKCINTEGGYVCRCSEGYQGDGIHCLDIDECQLGEHSCGENASCTNTEGGYTCMCAGRLSEPGLICPDSTPPPHLREDDHHYSVRNSDSECPLSHDGYCLHDGVCMYIEALDKYACNCVVGYIGERCQYRDLKWWELRHAGHGQQQKVIVVAVCVVVLVMLLLLSLWGAHYYRTQKLLSKNPKNPYEESSRDVRSRRPADTEDGMSSCPQPWFVVIKEHQDLKNGGQPVAGEDGQAADGSMQPTSWRQEPQLCGMGTEQGCWIPVSSDKGSCPQVMERSFHMPSYGTQTLEGGVEKPHSLLSANPLWQQRALDPPHQMELTQ
modifications: Pro-epidermal growth factor
notes: known cytoskeletal reorganizer

Tests used:
[1] = target: Normal human dermal fibroblasts; experiment: Protein binding assay, gBDLD to fibroblasts (His-tag ELISA)
Description: Normal human dermal fibroblasts were chilled to 4° C., washed three times with cold MES buffer and blocked with 1 mg/mL bovine serum albumin (BSA) for 30 minutes at 4° C. Unbound BSA was removed with cold MES washes (×4). The indicated amounts of gBDLD were added to each well for 90 minutes at 4° C. Cells were then washed three times with cold MES, twice with cold (phosphate-buffered saline (PBS) and fixed with 3% paraformaldehyde. An ELISA was then performed probing with anti-His rabbit polyclonal antibody (Santa Cruz Biotechnology, Santa Cruz, Calif.) and anti-rabbit HRP (Pierce). Absorbance was measured at 405 nm.
FIG. 7 is a graph depicting the results of a gBDLD binding assay (performed as described previously). Here, binding was measured by absorbance at 405 nm. […] To generate the data, human fibroblasts were incubated with gBDLD for the indicated times at 4° C. Cells were then washed, fixed and an ELISA was performed probing for the gBDLD […] his-tag. […]
FIG. 8 is a graph depicting gBDLD binding to human fibroblasts. As is readily apparent from FIG. 8, this binding is dose-dependent and saturable. […] After three IVIES washes and two PBS washes, cells were fixed in 3% paraformaldehyde and a His-tag ELISA was performed to quantitate gBDLD bound to cells.

HCMV-GFP = experiment: HCMV infectivity assay (HCMV-GFP, flow cytometry); format: cell-based, Human cytomegalovirus; conditions: human fibroblasts
Description: NHDFs were washed three times with MES buffer followed by the addition of gBDLD for 60 minutes at 37° C. Cells were then washed twice with MES buffer, three times with PBS and inoculated with HCMV-GFP (MOI=0.5) in serum-free DMEM. After 60 minutes, virus was removed and a 30 second, low-pH citrate wash was performed to remove extracellular virus. Twenty-four hour, post-infection cells were harvested and flow cytometry was performed to assay for GFP-positive cells.
FIG. 9 is a graph depicting the results of an assay to determine if gBDLD blocks NHDF cells from infection with HCMV. The infectivity assay was performed as described in the earlier examples. Briefly, gBDLD or BSA was added to human fibroblasts for 60 minutes. Cells were then washed, followed by HCMV-GFP challenge for 60 minutes. Cells were then citrate washed to remove any extracellular virus and incubated overnight. Flow cytometry was performed to assay for GFP positive versus total cells. As is readily observed from FIG. 9, gBDLD exerts a dose-dependent inhibition of HCMV infectivity in the cells tested.

diI-labeled HCMV = format: cell-based, Human cytomegalovirus; conditions: gBDLD or BSA 320 μg/mL, soluble heparin 50 μg/mL; 24 hours post-infection
β1 integrin = target: T2, β1 integrin (Homo sapiens, UniProt P05556); experiment: Integrin co-immunoprecipitation assay, β1; format: binding; conditions: human fibroblast lysates, nickel beads
T2 construct: endogenous in cells; host or cells: Normal Human Dermal Fibroblasts (NHDF), detergent lysate
Description: (§1) A T-175 flask of NHDFs was grown to complete confluence, washed three times in MES buffer and lysed in 1 mL MES buffer+1% TX-100 (a detergent). Lysate was spun at 10,000 g for 10 minutes to remove cell debris. Cell lysate (350 μL) was then incubated with 20 μg gBDLD for 4 hours at 4° C. The lysate+gBDLD mixture was then incubated with 50 μL Ni beads overnight at 4° C. Nickel beads were then washed three times and protein eluted by boiling and then adding reducing SDS-PAGE buffer. Proteins were separated by SDS-PAGE and Western blotted for β1 integrin (Chemicon-1965) or β3 (Chemicon) as previously described.^48
(§2) To identify the cellular receptor for gBDLD we performed co-immunoprecipitation studies. Briefly, gBDLD was incubated with human fibroblast lysates and pulled down with nickel-conjugated agarose beads.
(§3) Because gBDLD contains a known β1 integrin binding motif, gBDLD bound to its cellular receptor was isolated by SDS-PAGE and then Western blotted for either β1 or β3 integrin. The resulting gels are shown in FIG. 10 (β1) and FIG. 11 (β3).

β3 integrin = target: T1, β3 integrin; experiment: Integrin co-immunoprecipitation assay, β3; format: binding; conditions: human fibroblast lysates, nickel beads
Description: as §1, §2, §3

NHDF cells = experiment: Cytoskeletal rearrangement, actin staining with phalloidin; format: cell-based, human; conditions: compared to buffer alone
Excerpt: β1 integrins are known inducers of broad signal transduction events. […] To test the role of gBDLD in mediating signaling events, we stimulated NHDF cells with buffer alone, gBDLD, or a known cytoskeletal reorganizer (EGF), followed by actin staining with phalloidin.

[2] = Solubility of purified gBDLD in dialysis buffer; format: physicochemical; conditions: 55 mM MES, pH 5.5, 300 mM NaCl
Description: DNA sequence corresponding to amino acids 57-146 of HCMV AD 169 glycoprotein B disintegrin-like domain (“gBDLD”) was cloned into the bacterial expression vector pET-28a containing an N-terminal His-Tag with thrombin cleavage site and kanamycin resistance. (Commercially available from Novagen, San Diego, Calif.) gBDLD production was induced by the addition of 1 mM isopropyl-βD-thiogalactopyranoside (IPTG). E. coli Tuner strain containing pET-28a:gBDLD was grown at 37° C. in Luria-Bertani medium containing kanamycin (50 μg/mL) to an optical density at 600 nm of approximately 0.6. IPTG (1 mM) was added and the plates were incubated continuously for 4 h at 37° C. Cells were harvested by centrifugation at 4000 r/min for 10 min and pellets were resuspended in 1% Triton X-100/Ni-NTA buffer (300 mM NaCl/50 mM Tris-HCL pH 7.9) and lysed by 3×60 s bursts of sonication. The lysate was centrifuged at 15,000 r/min for 15 minutes at 4° C. The 8M urea/Ni-NTA fraction was then poured into a chromatography column containing nickel-nitriloacetic acid agarose (Ni-NTA) beads at 4° C. and allowed to flow through. […] Fractions containing protein were determined by measuring the absorbance of each fraction at 214 nm. Fractions that corresponded to absorption peaks were analyzed by sodium dodecyl sulfate polyacrylamide electrophoresis (SDS-PAGE) to determine the size of the protein. […]

T2 sequence (P05556 21-798): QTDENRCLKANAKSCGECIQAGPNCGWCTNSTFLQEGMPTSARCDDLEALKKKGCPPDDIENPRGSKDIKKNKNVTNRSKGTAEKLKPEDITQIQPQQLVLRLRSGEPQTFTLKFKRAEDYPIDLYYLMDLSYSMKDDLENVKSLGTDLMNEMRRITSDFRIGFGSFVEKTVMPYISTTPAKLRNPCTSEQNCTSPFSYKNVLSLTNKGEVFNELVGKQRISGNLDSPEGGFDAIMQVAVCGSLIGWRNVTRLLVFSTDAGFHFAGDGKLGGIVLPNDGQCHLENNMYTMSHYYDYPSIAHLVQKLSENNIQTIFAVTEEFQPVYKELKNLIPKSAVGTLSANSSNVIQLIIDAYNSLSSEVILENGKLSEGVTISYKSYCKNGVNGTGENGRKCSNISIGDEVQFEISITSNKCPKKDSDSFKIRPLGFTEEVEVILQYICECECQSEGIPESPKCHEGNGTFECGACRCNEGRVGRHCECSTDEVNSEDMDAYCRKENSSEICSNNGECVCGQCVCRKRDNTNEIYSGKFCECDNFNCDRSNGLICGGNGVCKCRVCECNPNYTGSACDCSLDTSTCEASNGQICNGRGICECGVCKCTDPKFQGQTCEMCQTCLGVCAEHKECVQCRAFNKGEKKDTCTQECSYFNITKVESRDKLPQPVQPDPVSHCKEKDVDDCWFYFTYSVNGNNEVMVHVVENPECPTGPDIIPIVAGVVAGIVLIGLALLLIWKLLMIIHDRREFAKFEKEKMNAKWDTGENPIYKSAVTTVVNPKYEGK

Row | Molecule | kinetics of gBDLD binding to human fibroblasts ([1]; 4° C., ELISA for his-tag) | concentration at which gBDLD binding to fibroblast monolayers reached saturation ([1]; 60 minutes, after BSA block) [µg/mL] | IC50 for HCMV neutralization (HCMV-GFP) [µg/mL] | IC50 (HCMV-GFP; read-out: IC50 for HCMV neutralization) [nM] | HCMV fusion (dye transfer) and gene expression (diI-labeled HCMV) | interaction with β1 integrin (pull down, Western blot) (β1 integrin) | interaction with β3 integrin (pull down, Western blot) (β3 integrin) | reorganization of the cytoskeleton (NHDF cells) | Solubility [2]
1 | B1 | rapid kinetics | 12.5 | 20.5 | 1960 | complete block | interacts | does not interact | triggered a dramatic reorganization of the cytoskeleton | approximately 1 mg/mL
2 | B2 |  |  |  |  |  |  |  | triggered a dramatic reorganization of the cytoskeleton | 
